{"source": "IntAct's records for PubMed 12730685", "biological_target": "mgn_human MAGOH (UniProt P61326)", "data": [{"substance": "RNA-binding protein 8A (Homo sapiens) (from UniProt Q9Y5S9) L118R", "values": [{"measurement": "effect of a mutation on the interaction", "value": "decreasing interaction"}]}]}
